Consider ten molecules from patent JP2014043405A (dated 2014).

The labels stand for the following.
T1: ヒトFcγRIIb (human, UniProt P31994 43-217)
T1 construct: extracellular domain; for the crystals it was expressed with kifunensine and its N-glycans trimmed with Endo F1; also called FcγRIIb細胞外領域
T1 sequence (looked up): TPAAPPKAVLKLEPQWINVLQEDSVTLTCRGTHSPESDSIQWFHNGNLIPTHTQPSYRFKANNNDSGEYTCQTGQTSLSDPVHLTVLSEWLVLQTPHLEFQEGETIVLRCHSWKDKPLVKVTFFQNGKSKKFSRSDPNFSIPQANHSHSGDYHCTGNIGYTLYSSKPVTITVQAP

B1: IL6R-BP267/IL6R-LにV266Mの改変が加えられた改変体 (antibody, human IgG1)
heavy: QVQLQESGPGLVKPSETLSLTCAVSGHSISHDHAWSWVRQPPGEGLEWIGFISYSGITNYNPSLQGRVTISRDNSKNTLYLQMNSLRAEDTAVYYCARSLARTTAMDYWGEGTLVTVSSASTKGPSVFPLAPSSKSTSGGTAALGCLVKDYFPEPVTVSWNSGALTSGVHTFPAVLQSSGLYSLSSVVTVPSSSLGTQTYICNVNHKPSNTKVDKKVEPKSCDKTHTCPPCPAPDLLGDDSVFLFPPKPKDTLMISRTPEVTCVVVDMSEEDGEVKFNWYVDGVEVHNAKTKPREEQYNSTYRVVSVLTVLHQDWLNGKEYKCKVSNKALPAPIEKTISKAKGQPREPQVYTLPPSRDELTKNQVSLTCLVKGFYPSDIAVEWESNGQPENNYKTTPPVLDSDGSFFLYSKLTVDKSRWQQGNVFSCSVMHEALHNHYTQESLSLSP
light: DIQMTQSPSSLSASVGDRVTITCRASQDISSYLNWYQQKPGKAPKLLIYYTSRLHSGVPSRFSGSGSGTDFTFTISSLQPEDIATYYCQQGNTLPYTFGQGTKVEIK
notes: also called IL6R-BP267 + V266M
B2: IL6R-BP458/IL6R-L (antibody, human IgG1)
heavy: QVQLQESGPGLVKPSETLSLTCAVSGHSISHDHAWSWVRQPPGEGLEWIGFISYSGITNYNPSLQGRVTISRDNSKNTLYLQMNSLRAEDTAVYYCARSLARTTAMDYWGEGTLVTVSSASTKGPSVFPLAPSSKSTSGGTAALGCLVKDYFPEPVTVSWNSGALTSGVHTFPAVLQSSGLYSLSSVVTVPSSSLGTQTYICNVNHKPSNTKVDKKVEPKSCDKTHTCPPCPAPDLLGDDSVFLFPPKPKDTLMISRTPEVTCVVVDVAEEDGEVKFNWYVDGVEVHNAKTKPREEQYNSTYRVVSVLTVLHQDWLNGKEYKCKVSNKALPRPIEKTISKAKGQPREPQVYTLPPSRDELTKNQVSLTCLVKGFYPSDIAVEWESNGQPENNYKTTPQVLDSDGSFFLYSKLTVDKSRWQQGNVFSCSVMHEALHNHYTQESLSLSP
light: DIQMTQSPSSLSASVGDRVTITCRASQDISSYLNWYQQKPGKAPKLLIYYTSRLHSGVPSRFSGSGSGTDFTFTISSLQPEDIATYYCQQGNTLPYTFGQGTKVEIK
B3: IL6R-BP454/IL6R-L (antibody, human IgG1)
heavy: QVQLQESGPGLVKPSETLSLTCAVSGHSISHDHAWSWVRQPPGEGLEWIGFISYSGITNYNPSLQGRVTISRDNSKNTLYLQMNSLRAEDTAVYYCARSLARTTAMDYWGEGTLVTVSSASTKGPSVFPLAPSSKSTSGGTAALGCLVKDYFPEPVTVSWNSGALTSGVHTFPAVLQSSGLYSLSSVVTVPSSSLGTQTYICNVNHKPSNTKVDKKVEPKSCDKTHTCPPCPAPDLLGDDSVFLFPPKPKDTLMISRTPEVTCVVVDVAEEDGEVKFNWYVDGVEVHNAKTKPREEQYNSTYRVVSVLTVLHQDWLNGKEYKCKVSNKALPRPIEKTISKAKGQPREPQVYTLPPSRDELTKNQVSLTCLVKGFYPSDIAVEWESNGQPENNYKTTPKVLDSDGSFFLYSKLTVDKSRWQQGNVFSCSVMHEALHNHYTQESLSLSP
light: DIQMTQSPSSLSASVGDRVTITCRASQDISSYLNWYQQKPGKAPKLLIYYTSRLHSGVPSRFSGSGSGTDFTFTISSLQPEDIATYYCQQGNTLPYTFGQGTKVEIK
B4: IL6R-BP449/IL6R-L (antibody, human IgG1)
heavy: QVQLQESGPGLVKPSETLSLTCAVSGHSISHDHAWSWVRQPPGEGLEWIGFISYSGITNYNPSLQGRVTISRDNSKNTLYLQMNSLRAEDTAVYYCARSLARTTAMDYWGEGTLVTVSSASTKGPSVFPLAPSSKSTSGGTAALGCLVKDYFPEPVTVSWNSGALTSGVHTFPAVLQSSGLYSLSSVVTVPSSSLGTQTYICNVNHKPSNTKVDKKVEPKSCDKTHTCPPCPAPDLLGDDSVFLFPPKPKDTLMISRTPEVTCVVVDVAEEDGEVKFNWYVDGVEVHNAKTKPREEQYNSTYRVVSVLTVLHQDWLNGKEYKCKVSNKALPRPIEKTISKAKGQPREPQVYTLPPSRDELTKNQVSLTCLVKGFYPSDIAVEWESNGQPENNYKTTPEVLDSDGSFFLYSKLTVDKSRWQQGNVFSCSVMHEALHNHYTQESLSLSP
light: DIQMTQSPSSLSASVGDRVTITCRASQDISSYLNWYQQKPGKAPKLLIYYTSRLHSGVPSRFSGSGSGTDFTFTISSLQPEDIATYYCQQGNTLPYTFGQGTKVEIK
B5: IL6R-BP448/IL6R-L (antibody, human IgG1)
heavy: QVQLQESGPGLVKPSETLSLTCAVSGHSISHDHAWSWVRQPPGEGLEWIGFISYSGITNYNPSLQGRVTISRDNSKNTLYLQMNSLRAEDTAVYYCARSLARTTAMDYWGEGTLVTVSSASTKGPSVFPLAPSSKSTSGGTAALGCLVKDYFPEPVTVSWNSGALTSGVHTFPAVLQSSGLYSLSSVVTVPSSSLGTQTYICNVNHKPSNTKVDKKVEPKSCDKTHTCPPCPAPDLLGDDSVFLFPPKPKDTLMISRTPEVTCVVVDVAEEDGEVKFNWYVDGVEVHNAKTKPREEQYNSTYRVVSVLTVLHQDWLNGKEYKCKVSNKALPRPIEKTISKAKGQPREPQVYTLPPSRDELTKNQVSLTCLVKGFYPSDIAVEWESNGQPENNYKTTPDVLDSDGSFFLYSKLTVDKSRWQQGNVFSCSVMHEALHNHYTQESLSLSP
light: DIQMTQSPSSLSASVGDRVTITCRASQDISSYLNWYQQKPGKAPKLLIYYTSRLHSGVPSRFSGSGSGTDFTFTISSLQPEDIATYYCQQGNTLPYTFGQGTKVEIK
B6: IL6R-BP450/IL6R-L (antibody, human IgG1)
heavy: QVQLQESGPGLVKPSETLSLTCAVSGHSISHDHAWSWVRQPPGEGLEWIGFISYSGITNYNPSLQGRVTISRDNSKNTLYLQMNSLRAEDTAVYYCARSLARTTAMDYWGEGTLVTVSSASTKGPSVFPLAPSSKSTSGGTAALGCLVKDYFPEPVTVSWNSGALTSGVHTFPAVLQSSGLYSLSSVVTVPSSSLGTQTYICNVNHKPSNTKVDKKVEPKSCDKTHTCPPCPAPDLLGDDSVFLFPPKPKDTLMISRTPEVTCVVVDVAEEDGEVKFNWYVDGVEVHNAKTKPREEQYNSTYRVVSVLTVLHQDWLNGKEYKCKVSNKALPRPIEKTISKAKGQPREPQVYTLPPSRDELTKNQVSLTCLVKGFYPSDIAVEWESNGQPENNYKTTPFVLDSDGSFFLYSKLTVDKSRWQQGNVFSCSVMHEALHNHYTQESLSLSP
light: DIQMTQSPSSLSASVGDRVTITCRASQDISSYLNWYQQKPGKAPKLLIYYTSRLHSGVPSRFSGSGSGTDFTFTISSLQPEDIATYYCQQGNTLPYTFGQGTKVEIK
B7: IL6R-BP453/IL6R-L (antibody, human IgG1)
heavy: QVQLQESGPGLVKPSETLSLTCAVSGHSISHDHAWSWVRQPPGEGLEWIGFISYSGITNYNPSLQGRVTISRDNSKNTLYLQMNSLRAEDTAVYYCARSLARTTAMDYWGEGTLVTVSSASTKGPSVFPLAPSSKSTSGGTAALGCLVKDYFPEPVTVSWNSGALTSGVHTFPAVLQSSGLYSLSSVVTVPSSSLGTQTYICNVNHKPSNTKVDKKVEPKSCDKTHTCPPCPAPDLLGDDSVFLFPPKPKDTLMISRTPEVTCVVVDVAEEDGEVKFNWYVDGVEVHNAKTKPREEQYNSTYRVVSVLTVLHQDWLNGKEYKCKVSNKALPRPIEKTISKAKGQPREPQVYTLPPSRDELTKNQVSLTCLVKGFYPSDIAVEWESNGQPENNYKTTPIVLDSDGSFFLYSKLTVDKSRWQQGNVFSCSVMHEALHNHYTQESLSLSP
light: DIQMTQSPSSLSASVGDRVTITCRASQDISSYLNWYQQKPGKAPKLLIYYTSRLHSGVPSRFSGSGSGTDFTFTISSLQPEDIATYYCQQGNTLPYTFGQGTKVEIK
B8: IL6R-BP459/IL6R-L (antibody, human IgG1)
heavy: QVQLQESGPGLVKPSETLSLTCAVSGHSISHDHAWSWVRQPPGEGLEWIGFISYSGITNYNPSLQGRVTISRDNSKNTLYLQMNSLRAEDTAVYYCARSLARTTAMDYWGEGTLVTVSSASTKGPSVFPLAPSSKSTSGGTAALGCLVKDYFPEPVTVSWNSGALTSGVHTFPAVLQSSGLYSLSSVVTVPSSSLGTQTYICNVNHKPSNTKVDKKVEPKSCDKTHTCPPCPAPDLLGDDSVFLFPPKPKDTLMISRTPEVTCVVVDVAEEDGEVKFNWYVDGVEVHNAKTKPREEQYNSTYRVVSVLTVLHQDWLNGKEYKCKVSNKALPRPIEKTISKAKGQPREPQVYTLPPSRDELTKNQVSLTCLVKGFYPSDIAVEWESNGQPENNYKTTPRVLDSDGSFFLYSKLTVDKSRWQQGNVFSCSVMHEALHNHYTQESLSLSP
light: DIQMTQSPSSLSASVGDRVTITCRASQDISSYLNWYQQKPGKAPKLLIYYTSRLHSGVPSRFSGSGSGTDFTFTISSLQPEDIATYYCQQGNTLPYTFGQGTKVEIK
B9: IL6R-BP456/IL6R-L (antibody, human IgG1)
heavy: QVQLQESGPGLVKPSETLSLTCAVSGHSISHDHAWSWVRQPPGEGLEWIGFISYSGITNYNPSLQGRVTISRDNSKNTLYLQMNSLRAEDTAVYYCARSLARTTAMDYWGEGTLVTVSSASTKGPSVFPLAPSSKSTSGGTAALGCLVKDYFPEPVTVSWNSGALTSGVHTFPAVLQSSGLYSLSSVVTVPSSSLGTQTYICNVNHKPSNTKVDKKVEPKSCDKTHTCPPCPAPDLLGDDSVFLFPPKPKDTLMISRTPEVTCVVVDVAEEDGEVKFNWYVDGVEVHNAKTKPREEQYNSTYRVVSVLTVLHQDWLNGKEYKCKVSNKALPRPIEKTISKAKGQPREPQVYTLPPSRDELTKNQVSLTCLVKGFYPSDIAVEWESNGQPENNYKTTPMVLDSDGSFFLYSKLTVDKSRWQQGNVFSCSVMHEALHNHYTQESLSLSP
light: DIQMTQSPSSLSASVGDRVTITCRASQDISSYLNWYQQKPGKAPKLLIYYTSRLHSGVPSRFSGSGSGTDFTFTISSLQPEDIATYYCQQGNTLPYTFGQGTKVEIK
B10: IL6R-BP455/IL6R-L (antibody, human IgG1)
heavy: QVQLQESGPGLVKPSETLSLTCAVSGHSISHDHAWSWVRQPPGEGLEWIGFISYSGITNYNPSLQGRVTISRDNSKNTLYLQMNSLRAEDTAVYYCARSLARTTAMDYWGEGTLVTVSSASTKGPSVFPLAPSSKSTSGGTAALGCLVKDYFPEPVTVSWNSGALTSGVHTFPAVLQSSGLYSLSSVVTVPSSSLGTQTYICNVNHKPSNTKVDKKVEPKSCDKTHTCPPCPAPDLLGDDSVFLFPPKPKDTLMISRTPEVTCVVVDVAEEDGEVKFNWYVDGVEVHNAKTKPREEQYNSTYRVVSVLTVLHQDWLNGKEYKCKVSNKALPRPIEKTISKAKGQPREPQVYTLPPSRDELTKNQVSLTCLVKGFYPSDIAVEWESNGQPENNYKTTPLVLDSDGSFFLYSKLTVDKSRWQQGNVFSCSVMHEALHNHYTQESLSLSP
light: DIQMTQSPSSLSASVGDRVTITCRASQDISSYLNWYQQKPGKAPKLLIYYTSRLHSGVPSRFSGSGSGTDFTFTISSLQPEDIATYYCQQGNTLPYTFGQGTKVEIK

The target of the assay is T1, ヒトFcγRIIb. The experiment in a line: SPR, KD. Background: SPR reads the build-up and loss of mass on a sensor chip optically.
B1: the binding result is “binds”.
Consider B2, for which the binding result is given as “binds”.
Turning to B3, the binding result is recorded as “binds”.
B4: the binding result was “binds”.
For B5, the binding result is “binds”.
Regarding B6, the binding result is reported as “binds”.
For B7 the value was “binds”; for B8, “binds”; for B9, “binds”.
Take B10: the binding result is recorded as “binds”.
